{"source": "patent US9708383", "about": "(Novo Nordisk, dated 2017)", "binders": {"B1": {"name": "GLP-1 derivative of Example 97: [Lys,Glu22,Arg34]-GLP-1-(7-37)-peptide (peptide)", "peptide": "HAEGTFTSDVSK([AEEA-AEEA-γGlu-γGlu-13‑carboxytridecanoyl])YLEEQAAK([AEEA-AEEA-γGlu-γGlu-13‑carboxytridecanoyl])EFIAWLVRGRG", "notes": "Name prints Lys without its number (Lys18)"}}, "note": "*1 amine or outer side, *2 acyl side, *3 side chain or, on linkers, in order; H or OH if unused. Where no end group is shown, it is not given here. Side-chain parts run from the residue outwards. The star is where a group is joined. γGlu = O=C(O)[C@H](CCC(=O)[*:2])N[*:1]; Hexanoyl(6-Ph) = O=C(CCCCCc1ccccc1)*; 13‑carboxytridecanoyl = C14 diacid; Butanoyl(4-Ph) = O=C(CCCc1ccccc1)*; AEEA = NCCOCCOCC(=O)O; Ahx = NCCCCCC(=O)O"}
{"biological_target": "T1, human GLP-1 receptor (human, UniProt P43220 24-463)", "T1 construct": "whole, on cells; Used as purified membranes of the transfected hamster cells, not whole cells; also called hGLP-1", "experiment": "SPA, displacement of 125I-GLP-1(7-36)NH2, 0.005% HSA", "experimental": "(§1) A shift in the binding affinity, $IC50$, is an indication that the derivative in question binds to albumin, and thereby a prediction of a potential protracted pharmacokinetic profile of the derivative in question in animal models.\n(§2) 25 ul (microliter) of test compounds are added to Optiplate. HSA (\"high albumin\" experiment containing 2% HSA), or buffer (\"low albumin\" experiment containing 0.005% HSA), was added (50 ul). 5-10 µg protein/sample was added (50 ul) corresponding to 0.1-0.2 mg protein/ml (to be preferably optimised for each membrane preparation). SPA-particles (Wheatgerm agglutinin SPA beads, Perkin Elmer, #RPNQ0001) were added in an amount of 0.5 mg/well (50 ul). […] The plates were sealed with PlateSealer and incubated for 120 minutes at 30° C. while shaking. The plates were centrifuged (1500 rpm, 10 min) and counted in Topcounter.", "units": {"IC50": "nM"}}
{"binder": "HAEGTFTSDVSK([AEEA-AEEA-γGlu-13‑carboxytridecanoyl])YLEEQAAK([AEEA-AEEA-γGlu-13‑carboxytridecanoyl])EFIAWLVRGRG", "note": "[GLP-1 derivative of Example 96: [Lys18,Glu22,Arg34]-GLP-1-(7-37)-peptide]", "IC50": "< 1000"}
{"binder": "HAEGTFTSDVSK([AEEA-AEEA-γGlu-γGlu-γGlu-13‑carboxytridecanoyl])YLEEQAVREFIAK([AEEA-AEEA-γGlu-γGlu-γGlu-13‑carboxytridecanoyl])LVRGRG", "note": "[GLP-1 derivative of Example 101: [Lys18,Glu22,Val25,Arg26,Lys31,Arg34]-GLP-1-(7-37)-peptide]", "IC50": "< 1000"}
{"binder": "HAEGTFTSDVSK([AEEA-AEEA-γGlu-13‑carboxytridecanoyl])YLEEQAAHK([AEEA-AEEA-γGlu-13‑carboxytridecanoyl])FIAHLVQGRG", "note": "[GLP-1 derivative of Example 119: [Lys18,Glu22,His26,Lys27,His31,Gln34]-GLP-1-(7-37)-peptide]", "IC50": "< 1000"}
{"binder": "HAEGTFTSDVSK([AEEA-AEEA-AEEA-AEEA-AEEA-AEEA-γGlu-13‑carboxytridecanoyl])YLEEQAVREFIAK([AEEA-AEEA-AEEA-AEEA-AEEA-AEEA-γGlu-13‑carboxytridecanoyl])LVRGRG", "note": "[GLP-1 derivative of Example 99: [Lys18,Glu22,Val25,Arg26,Lys31,Arg34]-GLP-1-(7-37)-peptide]", "IC50": "< 1000"}
{"binder": "HAEGTFTSDVSK([γGlu-AEEA-AEEA-13‑carboxytridecanoyl])YLEGQAVREFIAK([γGlu-AEEA-AEEA-13‑carboxytridecanoyl])LVRGRG", "note": "[GLP-1 derivative of Example 104: [Lys18,Val25,Arg26,Lys31,Arg34]-GLP-1-(7-37)-peptide]", "IC50": "< 1000"}
{"binder": "HAEGTFTSDVSK([AEEA-AEEA-γGlu-Ahx-γGlu-Hexanoyl(6-Ph)])YLEGQAAK([AEEA-AEEA-γGlu-Ahx-γGlu-Hexanoyl(6-Ph)])EFIAWLVRGRG", "note": "[GLP-1 derivative of Example 129: [Lys18,Arg34]-GLP-1-(7-37)-peptide]", "IC50": "< 1000"}
{"binder": "HAEGTFTSDVSK([AEEA-AEEA-AEEA-AEEA-γGlu-13‑carboxytridecanoyl])YLEEQAVREFIAK([AEEA-AEEA-AEEA-AEEA-γGlu-13‑carboxytridecanoyl])LVRGRG", "note": "[GLP-1 derivative of Example 98: [Lys18,Glu22,Val25,Arg26,Lys31,Arg34]-GLP-1-(7-37)-peptide]", "IC50": "< 1000"}
{"binder": "HAEGTFTSDVSK([AEEA-AEEA-γGlu-2‑(2-(trifluoromethyl)phenyl)acetyl])YLEK([AEEA-AEEA-γGlu-2‑(2-(trifluoromethyl)phenyl)acetyl])QAAREFIAWLVQGRG", "note": "[GLP-1 derivative of Example 125: [Lys18,Lys22,Arg26,Gln34]-GLP-1-(7-37)-peptide]", "IC50": "< 1000"}
{"binder": "HAEGTFTSDVSK([γGlu-AEEA-AEEA-γGlu-13‑carboxytridecanoyl])YLEEQAVREFIAK([γGlu-AEEA-AEEA-γGlu-13‑carboxytridecanoyl])LVRGRG", "note": "[GLP-1 derivative of Example 111: [Lys18,Glu22,Val25,Arg26,Lys31,Arg34]-GLP-1-(7-37)-peptide]", "IC50": "< 1000"}
{"binder": "HAEGTFTSDVSK([AEEA-AEEA-γGlu-13‑carboxytridecanoyl])YLEEQAVREFIAK([AEEA-AEEA-γGlu-13‑carboxytridecanoyl])LVRGRG-NH2", "note": "[GLP-1 derivative of Example 133: [Lys18,Glu22,Val25,Arg26,Lys31,Arg34]-GLP-1-(7-37)-peptide amide]", "IC50": "< 1000"}
{"binder": "B1", "IC50": "< 1000"}
{"binder": "HAEGTFTSDVSK([AEEA-AEEA-γGlu-Ahx-γGlu-Butanoyl(4-Ph)])YLEGQAAK([AEEA-AEEA-γGlu-Ahx-γGlu-Butanoyl(4-Ph)])EFIAWLVRGRG", "note": "[GLP-1 derivative of Example 110: [Lys18,Arg34]-GLP-1-(7-37)-peptide]", "IC50": "< 1000"}
{"binder": "HAEGTFTSDVSK([AEEA-AEEA-γGlu-γGlu-13‑carboxytridecanoyl])YLEK([AEEA-AEEA-γGlu-γGlu-13‑carboxytridecanoyl])QAAREFIAWLVQGRG", "note": "[GLP-1 derivative of Example 126: [Lys18,Lys22,Arg26,Gln34]-GLP-1-(7-37)-peptide]", "IC50": "< 1000"}
{"binder": "HAEGTFTSDVSK([AEEA-AEEA-γGlu-13‑carboxytridecanoyl])YLEEQAVRK([AEEA-AEEA-γGlu-13‑carboxytridecanoyl])FIAHLVQGRG", "note": "[GLP-1 derivative of Example 118: [Lys18,Glu22,Val25,Arg26,Lys27,His31,Gln34]-GLP-1-(7-37)-peptide]", "IC50": "< 1000"}
{"biological_target": "T1, human GLP-1 receptor", "experiment": "SPA, 2.0% vs 0.005% HSA", "experimental": "as §1, §2"}
{"binder": "HAEGTFTSDVSK([AEEA-AEEA-γGlu-13‑carboxytridecanoyl])YLEEQAAK([AEEA-AEEA-γGlu-13‑carboxytridecanoyl])EFIAWLVRGRG", "note": "[GLP-1 derivative of Example 96: [Lys18,Glu22,Arg34]-GLP-1-(7-37)-peptide]", "ratio IC50 high HSA/IC50 low HSA": "> 1"}
{"binder": "HAEGTFTSDVSK([AEEA-AEEA-γGlu-γGlu-γGlu-13‑carboxytridecanoyl])YLEEQAVREFIAK([AEEA-AEEA-γGlu-γGlu-γGlu-13‑carboxytridecanoyl])LVRGRG", "note": "[GLP-1 derivative of Example 101: [Lys18,Glu22,Val25,Arg26,Lys31,Arg34]-GLP-1-(7-37)-peptide]", "ratio IC50 high HSA/IC50 low HSA": "> 1"}
{"binder": "HAEGTFTSDVSK([AEEA-AEEA-γGlu-13‑carboxytridecanoyl])YLEEQAAHK([AEEA-AEEA-γGlu-13‑carboxytridecanoyl])FIAHLVQGRG", "note": "[GLP-1 derivative of Example 119: [Lys18,Glu22,His26,Lys27,His31,Gln34]-GLP-1-(7-37)-peptide]", "ratio IC50 high HSA/IC50 low HSA": "> 1"}
{"binder": "HAEGTFTSDVSK([AEEA-AEEA-AEEA-AEEA-AEEA-AEEA-γGlu-13‑carboxytridecanoyl])YLEEQAVREFIAK([AEEA-AEEA-AEEA-AEEA-AEEA-AEEA-γGlu-13‑carboxytridecanoyl])LVRGRG", "note": "[GLP-1 derivative of Example 99: [Lys18,Glu22,Val25,Arg26,Lys31,Arg34]-GLP-1-(7-37)-peptide]", "ratio IC50 high HSA/IC50 low HSA": "> 1"}
{"binder": "HAEGTFTSDVSK([γGlu-AEEA-AEEA-13‑carboxytridecanoyl])YLEGQAVREFIAK([γGlu-AEEA-AEEA-13‑carboxytridecanoyl])LVRGRG", "note": "[GLP-1 derivative of Example 104: [Lys18,Val25,Arg26,Lys31,Arg34]-GLP-1-(7-37)-peptide]", "ratio IC50 high HSA/IC50 low HSA": "> 1"}
{"binder": "HAEGTFTSDVSK([AEEA-AEEA-γGlu-Ahx-γGlu-Hexanoyl(6-Ph)])YLEGQAAK([AEEA-AEEA-γGlu-Ahx-γGlu-Hexanoyl(6-Ph)])EFIAWLVRGRG", "note": "[GLP-1 derivative of Example 129: [Lys18,Arg34]-GLP-1-(7-37)-peptide]", "ratio IC50 high HSA/IC50 low HSA": "> 1"}
{"binder": "HAEGTFTSDVSK([AEEA-AEEA-AEEA-AEEA-γGlu-13‑carboxytridecanoyl])YLEEQAVREFIAK([AEEA-AEEA-AEEA-AEEA-γGlu-13‑carboxytridecanoyl])LVRGRG", "note": "[GLP-1 derivative of Example 98: [Lys18,Glu22,Val25,Arg26,Lys31,Arg34]-GLP-1-(7-37)-peptide]", "ratio IC50 high HSA/IC50 low HSA": "> 1"}
{"binder": "HAEGTFTSDVSK([AEEA-AEEA-γGlu-2‑(2-(trifluoromethyl)phenyl)acetyl])YLEK([AEEA-AEEA-γGlu-2‑(2-(trifluoromethyl)phenyl)acetyl])QAAREFIAWLVQGRG", "note": "[GLP-1 derivative of Example 125: [Lys18,Lys22,Arg26,Gln34]-GLP-1-(7-37)-peptide]", "ratio IC50 high HSA/IC50 low HSA": "> 1"}
{"binder": "HAEGTFTSDVSK([γGlu-AEEA-AEEA-γGlu-13‑carboxytridecanoyl])YLEEQAVREFIAK([γGlu-AEEA-AEEA-γGlu-13‑carboxytridecanoyl])LVRGRG", "note": "[GLP-1 derivative of Example 111: [Lys18,Glu22,Val25,Arg26,Lys31,Arg34]-GLP-1-(7-37)-peptide]", "ratio IC50 high HSA/IC50 low HSA": "> 1"}
{"binder": "HAEGTFTSDVSK([AEEA-AEEA-γGlu-13‑carboxytridecanoyl])YLEEQAVREFIAK([AEEA-AEEA-γGlu-13‑carboxytridecanoyl])LVRGRG-NH2", "note": "[GLP-1 derivative of Example 133: [Lys18,Glu22,Val25,Arg26,Lys31,Arg34]-GLP-1-(7-37)-peptide amide]", "ratio IC50 high HSA/IC50 low HSA": "> 1"}
{"binder": "B1", "ratio IC50 high HSA/IC50 low HSA": "> 1"}
{"binder": "HAEGTFTSDVSK([AEEA-AEEA-γGlu-Ahx-γGlu-Butanoyl(4-Ph)])YLEGQAAK([AEEA-AEEA-γGlu-Ahx-γGlu-Butanoyl(4-Ph)])EFIAWLVRGRG", "note": "[GLP-1 derivative of Example 110: [Lys18,Arg34]-GLP-1-(7-37)-peptide]", "ratio IC50 high HSA/IC50 low HSA": "> 1"}
{"binder": "HAEGTFTSDVSK([AEEA-AEEA-γGlu-γGlu-13‑carboxytridecanoyl])YLEK([AEEA-AEEA-γGlu-γGlu-13‑carboxytridecanoyl])QAAREFIAWLVQGRG", "note": "[GLP-1 derivative of Example 126: [Lys18,Lys22,Arg26,Gln34]-GLP-1-(7-37)-peptide]", "ratio IC50 high HSA/IC50 low HSA": "> 1"}
{"binder": "HAEGTFTSDVSK([AEEA-AEEA-γGlu-13‑carboxytridecanoyl])YLEEQAVRK([AEEA-AEEA-γGlu-13‑carboxytridecanoyl])FIAHLVQGRG", "note": "[GLP-1 derivative of Example 118: [Lys18,Glu22,Val25,Arg26,Lys27,His31,Gln34]-GLP-1-(7-37)-peptide]", "ratio IC50 high HSA/IC50 low HSA": "> 1"}
